Values of other authors, collected in publication PMC3377446.

Biological target: PDL1 (Homo sapiens) (UniProt Q9NZQ7)
Sequence of UniProt Q9NZQ7 (Q9NZQ7 19-238): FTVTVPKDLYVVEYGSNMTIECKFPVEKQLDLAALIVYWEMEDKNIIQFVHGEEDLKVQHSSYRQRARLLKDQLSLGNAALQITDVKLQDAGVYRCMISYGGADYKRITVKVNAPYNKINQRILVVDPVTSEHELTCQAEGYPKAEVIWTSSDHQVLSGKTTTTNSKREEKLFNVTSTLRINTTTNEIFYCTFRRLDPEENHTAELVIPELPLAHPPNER

Kd: 1400 nM
Substance: CD80 (from UniProt P33681)
